# Laboratory results from US9587002B2, “Sequence of nucleotides and peptides GSE 24.2 of dyskerin, which can induce telomerase activity, method for obtaining same, therapeutic compositions and applications thereof” (CONSEJO SUPERIOR DE INVESTIGACIONES CIENTIFICAS, priority 2005, dated 2017).
# “Also recorded” adds a separate entry of the source.
# B1: GSE 24.2: 165-pb cDNA fragment (nucleotides 268 to 433) of human dyskerin, SEQ ID NO1, encoding peptide SEQ ID NO2, expressed from pLNCX plasmid (nucleic acid, listed as Homo sapiens)
# DNA: GGTTTCATTAATCTTGACAAGCCCTCTAACCCCTCTTCCCATGAGGTGGTAGCCTGGATTCGACGGATACTTCGGGTGGAGAAGACAGGGCACAGTGGTACTCTGGATCCCAAGGTGACTGGTTGTTTAATCGTGTGCATAGAACGAGCCACTCGCTTGGTGAAG
# modifications: expressed from pLNCX plasmid; CDS (1)..(165) Sequence GSE 24.2
# Experiments:
# hTR = assay: RT-PCR of hTR in VA13 cells; format: cell-based; settings: transient transfection
# Method: FIG. 10.—Telomerase activity and expression levels of hTERT and hTR in the cells of patients with dyskeratosis congenita and in VA13 cells transiently transfected with the 24.2 plasmid or the pLNCX empty vector. A) Telomerase activity measured by means of the TRAP assay in the cells of patients with dyskeratosis congenita (DC-1, DC-2 and DC-3) and in the carrier parent (DC-C) following electroporation of 45 μg of the pLNCX empty plasmid (−) or the pLNCX 24.2 vector (+) by 15 million cells. B) RT-PCR of the RNA from cells of one of the patients with dyskeratosis congenita, DC3 transfected with the empty vector and DC3 transfected with the 24.2 plasmid, using oligos specific for hTERT and hTR. As a starting RNA control, oligos for the amplification of GAPDH were used. C) Telomerase activity in VA13 cells. The cells were transiently transfected with 16 μg of the control pLNCX empty vector, expressing DKC or the GSE 24.2 peptide per million cells. 24 hours later, the telomerase activity was analysed as described above, using dilutions of the protein extracts from each transfection. D) The expression levels of hTERT and hTR in VA13 cells transfected with 16 μg of the different construct per million cells. RNA levels were detected as described above. GAPDH was used as a control. […] After 24 h of transfection, the luciferase activity was analyzed as described above. […]
# 293T cells = assay: Cell viability of 293T cell lines treated with cisplatin (crystal violet); format: cell-based, human; settings: 293T cells stably expressing the construct vs empty vector pLNCX; cisplatin 0-100 μg/ml, 72 hours
# Method: FIG. 2.—Cell viability and activation of the JNK and p38 death pathways in 293T cell lines: pLNCX and 24.2, treated with cisplatin. A) Cell viability. After seeding the 293T cells: expressing the empty vector (pLNCX) and GSE 24.2 (24.2) in 24-well plates, they were incubated with concentrations between 0-100 μg/ml of cisplatin. The cell viability was measured by means of the crystal violet technique after 72 hours of exposure to the drug. The data represent the mean of two experiments performed in quadruplicate. B) Activation kinetics. Subsequently, the activation of JNK and p38 was studied using antibodies that specifically recognise the active forms. As a load control, the levels of JNK-1 were detected.
# FIG. 4.—Viability of the 293T cell lines: pLNCX, 24.2, DSK5′ and DSK treated with cisplatin. The cell lines described above (pLNCX and 24.2), the DSK 5′ cell line, which expresses a fragment of dyskerin described in the preceding figure, and a fourth one that overexpresses the complete cDNA of dyskerin (DSK) have been used. The viability was analyzed as shown in FIG. 1 A. The data represent the mean of two experiments performed in quadruplicate. […]
# Growth curves. […] The number of cells was determined by estimating the absorbance at 595 nm. […]
molecule,measurement,setting,value
B1,expression of hTR RNA in VA13 cells,hTR,capable of recovering
same,cell viability in response to cisplatin,293T cells,greater viability in response to cisplatin; also recorded: survival capacity to cisplatin
